Measurements taken from paper PMC9618058, “A genetically encoded system for oxygen generation in living cells” (Proceedings of the National Academy of Sciences of the …, 2022).

Substrate: [O-][Cl+]O
Test: oxygen evolution in digitonin-permeabilised HeLa cells, optical oxygen meter, initial rates
Type: biochemical, Nitrospira defluvii
Conditions: 20 mM HEPES pH 7.2, 125 mM KCl, 2 mM K2HPO4, 1 mM MgCl2, glutamate, malate, 0.01% digitonin, air-saturated, chlorite 10 μM to 1 mM

B1: FLAG-NdCld (Nitrospira defluvii) (protein)
chain: ADREKLLTESGVYGTFATFQMDHDWWDLPGESRVISVAEVKGLVEQWSGKILVESYLLRGLSDHADLMFRVHARTLSDTQQFLSAFMGTRLGRHLTSGGLLHGVSKKPTYVAGFPESMKTELQVNGESGSRPYAIVIPIKKDAEWWALDQEARTALMQEHTQAALPYLKTVKRKLYHSTGLDDVDFITYFETERLEDFHNLVRALQQVKEFRHNRRFGHPTLLGTMSPLDEILEKFAQ
notes: codon-optimised; N-terminal FLAG kept; expressed in HeLa cells; 29 kDa; runs at 248 kDa (dimer of pentamers)
With B1 the Km was 560 µM.
